One test has as its target T1, 4H2588-bN.
T1 chain: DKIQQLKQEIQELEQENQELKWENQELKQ
Briefly: two-hybrid library CCNG1.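 Also: natural log of median RNA to DNA barcode read ratio; higher means stronger binding.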

The target of the next test is T2, 4H2692-bN.
T2 chain: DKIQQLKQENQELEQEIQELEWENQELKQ
Briefly: two-hybrid library CCNG1.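 Also: natural log of median RNA to DNA barcode read ratio; higher means stronger binding.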

In the next test the target is T3, 4H2473-bN.
T3 chain: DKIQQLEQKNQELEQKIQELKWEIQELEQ
Briefly: two-hybrid library CCNG1.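 Also: natural log of median RNA to DNA barcode read ratio; higher means stronger binding.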

Another test deals with T4, 4H2915-bN.
T4 chain: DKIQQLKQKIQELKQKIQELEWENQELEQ
Description: two-hybrid library CCNG1.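 Also: natural log of median RNA to DNA barcode read ratio; higher means stronger binding.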

Another test has as its target T5, 4H2503-bN.
T5 chain: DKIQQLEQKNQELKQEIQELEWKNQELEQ
Briefly: two-hybrid library CCNG1.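 Also: natural log of median RNA to DNA barcode read ratio; higher means stronger binding.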

The next test deals with T6, 4H2143-bN.
T6 chain: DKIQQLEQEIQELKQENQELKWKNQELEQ
Description: two-hybrid library CCNG1.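 Also: natural log of median RNA to DNA barcode read ratio; higher means stronger binding.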

A further test concerns the target T7, 4H3277-bN.
T7 chain: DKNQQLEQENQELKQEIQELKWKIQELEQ
Description: two-hybrid library CCNG1.

Another test concerns the target T8, 4H2438-bN.
T8 chain: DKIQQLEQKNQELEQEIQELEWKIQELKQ
Briefly: two-hybrid library CCNG1.

In a further test the target is T9, 4H2717-bN.
T9 chain: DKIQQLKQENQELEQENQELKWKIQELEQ
Briefly: two-hybrid library CCNG1.

The next test has as its target T10, 4H182-bN.
T10 chain: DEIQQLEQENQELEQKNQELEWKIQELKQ
Description: two-hybrid library CCNG1.

A further test concerns the target T11, 4H2839-bN.
T11 chain: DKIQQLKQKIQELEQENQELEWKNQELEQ
Description: two-hybrid library CCNG1.

The next test has as its target T12, 4H3057-bN.
T12 chain: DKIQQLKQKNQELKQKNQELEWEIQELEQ
Briefly: two-hybrid library CCNG1.

The target of the next test is T13, 4H121-bN.
T13 chain: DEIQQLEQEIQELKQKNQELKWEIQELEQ
Description: two-hybrid library CCNG1.

Another test deals with T14, 4H492-bN.
T14 chain: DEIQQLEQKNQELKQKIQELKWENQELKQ
Briefly: two-hybrid library CCNG1.

The next test concerns the target T15, 4H3974-bA.
T15 chain: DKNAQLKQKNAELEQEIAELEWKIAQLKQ
Briefly: two-hybrid library CCNG1.

Another test concerns the target T16, 4H741-bN.
T16 chain: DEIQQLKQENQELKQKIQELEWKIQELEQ
Briefly: two-hybrid library CCNG1.

A further test has as its target T17, 4H40-bN.
T17 chain: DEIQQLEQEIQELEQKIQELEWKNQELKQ
Description: two-hybrid library CCNG1.

The target in the next test is T18, 4H348-bN.
T18 chain: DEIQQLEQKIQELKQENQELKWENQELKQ
Description: two-hybrid library CCNG1.

For the next test, the target named is T19, 4H319-bN.
T19 chain: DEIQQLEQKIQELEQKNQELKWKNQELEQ
Description: two-hybrid library CCNG1.

A further test addresses T20, 4H2134-bN.
T20 chain: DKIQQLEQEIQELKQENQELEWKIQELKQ
Description: two-hybrid library CCNG1.

The target of another test is T21, 4H2223-bN.
T21 chain: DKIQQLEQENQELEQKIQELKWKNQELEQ
Description: two-hybrid library CCNG1.

A further test has as its target T22, 4H477-bN.
T22 chain: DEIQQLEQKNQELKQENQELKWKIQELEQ
Briefly: two-hybrid library CCNG1.

The next test addresses T23, 4H3907-bH.
T23 chain: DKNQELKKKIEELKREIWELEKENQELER
Description: two-hybrid library CCNG1.

Another test concerns the target T24, 4H1046-bH.
T24 chain: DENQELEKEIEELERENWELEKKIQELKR
Briefly: two-hybrid library CCNG1. As to conditions: mean of both orientations.

Another test concerns the target T25, 4H470-bH.
T25 chain: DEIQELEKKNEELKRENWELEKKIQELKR
Briefly: two-hybrid library CCNG1.

The next test has as its target T26, 4H3961-bH.
T26 chain: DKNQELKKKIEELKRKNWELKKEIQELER
Description: two-hybrid library CCNG1. As to conditions: mean of both orientations.

The target in another test is T27, 4H344-bH.
T27 chain: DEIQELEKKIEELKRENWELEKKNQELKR
Briefly: two-hybrid library CCNG1.

The next test addresses T28, 4H2619-bH.
T28 chain: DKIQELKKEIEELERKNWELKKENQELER
Description: two-hybrid library CCNG1.

Another test concerns the target T29, 4H2745-bH.
T29 chain: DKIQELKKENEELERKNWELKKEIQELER
Description: two-hybrid library CCNG1.

The next test addresses T30, 4H363-bH.
T30 chain: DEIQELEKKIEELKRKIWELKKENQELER
Briefly: two-hybrid library CCNG1.

The next test has as its target T31, 4H1072-bH.
T31 chain: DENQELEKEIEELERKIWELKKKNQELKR
Description: two-hybrid library CCNG1.

For the next test, the target named is T32, 4H2568-bH.
T32 chain: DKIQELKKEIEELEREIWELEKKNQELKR
Briefly: two-hybrid library CCNG1.

For the next test, the target named is T33, P2p.
T33 chain: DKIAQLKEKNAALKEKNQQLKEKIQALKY
Briefly: two-hybrid library CCmax. The note with it: mean of both orientations.

The target of another test is T34, Core_IINI-es_KKKE.
T34 chain: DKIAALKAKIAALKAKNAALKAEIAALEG
Briefly: two-hybrid library CCmax. The note with it: mean of both orientations.

Another test addresses T35, 4H626-bA.
T35 chain: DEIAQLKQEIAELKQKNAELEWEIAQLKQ
Description: two-hybrid library CCNG1.

In a further test the target is T36, 4H3175-bA.
T36 chain: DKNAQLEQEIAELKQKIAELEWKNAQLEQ
Description: two-hybrid library CCNG1.

The next test has as its target T37, P10A-bS.
T37 chain: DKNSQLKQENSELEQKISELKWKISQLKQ
Briefly: two-hybrid library CCNG1.

For a further test, the target named is T38, 4H3462-bA.
T38 chain: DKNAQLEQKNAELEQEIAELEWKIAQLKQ
Briefly: two-hybrid library CCNG1.

The next test deals with T39, 4H3298-bA.
T39 chain: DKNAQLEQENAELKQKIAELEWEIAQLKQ
Description: two-hybrid library CCNG1.

The next test deals with T40, 4H3497-bA.
T40 chain: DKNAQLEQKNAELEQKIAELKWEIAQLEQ
Briefly: two-hybrid library CCNG1.

Another test addresses T41, 4H3277-bA.
T41 chain: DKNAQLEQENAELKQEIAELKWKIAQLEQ
Description: two-hybrid library CCNG1.

Another test addresses T42, 4H3631-bA.
T42 chain: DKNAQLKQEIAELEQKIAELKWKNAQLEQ
Briefly: two-hybrid library CCNG1.

The target of another test is T43, 4H3162-bA.
T43 chain: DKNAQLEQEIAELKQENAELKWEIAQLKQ
Briefly: two-hybrid library CCNG1.

A further test addresses T44, 4H906-bA.
T44 chain: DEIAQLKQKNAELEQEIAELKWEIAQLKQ
Description: two-hybrid library CCNG1.

For another test, the target named is T45, 4H348-bA.
T45 chain: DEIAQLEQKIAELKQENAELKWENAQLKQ
Description: two-hybrid library CCNG1.

A further test addresses T46, 4H3613-bA.
T46 chain: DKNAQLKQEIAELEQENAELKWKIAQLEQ
Briefly: two-hybrid library CCNG1.

The target in a further test is T47, 4H591-bA.
T47 chain: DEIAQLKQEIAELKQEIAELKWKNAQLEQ
Briefly: two-hybrid library CCNG1.

In the next test the target is T48, 4H3628-bA.
T48 chain: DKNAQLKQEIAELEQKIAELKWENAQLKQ
Briefly: two-hybrid library CCNG1.

A further test concerns the target T49, 4H3926-bA.
T49 chain: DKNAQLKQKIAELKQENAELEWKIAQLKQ
Briefly: two-hybrid library CCNG1.

For the next test, the target named is T50, P2bHq.
T50 chain: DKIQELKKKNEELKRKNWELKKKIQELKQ
Briefly: two-hybrid library CCNG1.

The target in the next test is T51, P4S-Cys.
T51 chain: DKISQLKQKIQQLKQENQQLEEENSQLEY
Briefly: two-hybrid library CCNG1. The note with it: mean of both orientations.

The next test deals with T52, Core_INNN-es_KEKK.
T52 chain: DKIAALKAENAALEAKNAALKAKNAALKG
Briefly: two-hybrid library CCmax. The note with it: mean of both orientations.

A further test concerns the target T53, Core_NINI-es_KEKK.
T53 chain: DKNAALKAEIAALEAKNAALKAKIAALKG
Description: two-hybrid library CCmax. As to conditions: mean of both orientations.

The target of the next test is T54, Core_NNNI-es_KKKE.
T54 chain: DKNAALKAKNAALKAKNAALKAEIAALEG
Description: two-hybrid library CCmax. The note with it: mean of both orientations.

The next test addresses T55, Core_NINN-es_KEKK.
T55 chain: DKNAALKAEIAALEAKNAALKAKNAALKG
Description: two-hybrid library CCmax. The note with it: mean of both orientations.

In a further test the target is T56, P8SH.
T56 chain: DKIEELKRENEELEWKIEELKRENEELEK
Briefly: two-hybrid library CCNG1.

In another test the target is T57, P7SH.
T57 chain: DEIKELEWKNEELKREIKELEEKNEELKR
Description: two-hybrid library CCNG1.

For a further test, the target named is T58, P3SH.
T58 chain: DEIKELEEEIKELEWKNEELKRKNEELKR
Briefly: two-hybrid library CCNG1.

A further test addresses T59, P4SH.
T59 chain: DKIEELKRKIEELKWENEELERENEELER
Briefly: two-hybrid library CCNG1.

In a further test the target is T60, P5SH.
T60 chain: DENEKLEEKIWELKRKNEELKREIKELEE
Briefly: two-hybrid library CCNG1.

The next test deals with T61, P6SH.
T61 chain: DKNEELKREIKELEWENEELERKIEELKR
Description: two-hybrid library CCNG1.

B1: 4H121-bN (peptide)
chain: DEIQQLEQEIQELKQKNQELKWEIQELEQ
On to B1, for which the interaction score with 4H2588-bN is -0.5; with 4H2692-bN it was -1.02; with 4H2473-bN it was -0.436; with 4H2915-bN it was -0.211; with 4H2503-bN, -1.29; with 4H2143-bN, -0.718. Besides, the interaction score was -1.33 with 4H3277-bN; 1.48 with 4H2438-bN; -0.302 in the test with 4H2717-bN; -0.748 in the test with 4H182-bN; -0.184 in the test with 4H2839-bN; -1.3 with 4H3057-bN. Further, the interaction score in the test with 4H121-bN is -0.707; with 4H492-bN it was -1.42; with 4H3974-bA it was 1.19; with 4H741-bN, -1.39; with 4H40-bN it was -0.563; with 4H348-bN, -0.398. In addition, the interaction score is -1.04 with 4H319-bN, 1.52 with 4H2134-bN, -0.986 with 4H2223-bN and -1.35 with 4H477-bN.

B2: 4H1046-bH (peptide)
chain: DENQELEKEIEELERENWELEKKIQELKR
As for B2, the interaction score with 4H3907-bH was -0.121; with 4H1046-bH, 0.287; with 4H470-bH, 0.405; with 4H3961-bH, -0.386; with 4H344-bH, 1.33; with 4H2619-bH it was 0.439. For the same molecule, the interaction score in the test with 4H2745-bH was 0.917; with 4H363-bH, -1.16; with 4H1072-bH, -0.477; with 4H2568-bH, 1.03.

B3: P1p (peptide)
chain: DEIQALEEENAQLEQENAALEEEIAQLEY
As for B3, in the test with P2p, the interaction score is 1.64.

B4: Core_IINI-es_EEEK (peptide)
chain: DEIAALEAEIAALEAENAALEAKIAALKG
With B4, the interaction score with Core_IINI-es_KKKE came to 2.3.

B5: 4H3162-bA (peptide)
chain: DKNAQLEQEIAELKQENAELKWEIAQLKQ
On to B5, for which the interaction score with 4H626-bA is -0.331; with 4H3175-bA, -0.314; with P10A-bS, -0.255; with 4H3462-bA, -0.481; with 4H3298-bA, -0.43; with 4H3497-bA, -0.885. For the same molecule, the interaction score with 4H3277-bA is -0.654; with 4H3631-bA, -1.48; in the test with 4H3162-bA, 1.11; in the test with 4H906-bA, -1.01; with 4H348-bA, -2.08; with 4H3613-bA, 0.452. The interaction score is -1.2 with 4H591-bA, -0.274 in the test with 4H3628-bA, 1.8 in the test with 4H3926-bA and -0.679 in the test with P2bHq.

B6: Cys-P3S (peptide)
chain: DEIQQLEEEISQLEQKNSQLKEKNQQLKY
The molecule B6 displayed an interaction score in the test with P4S-Cys of 1.92.

B7: Core_INNN-es_EKEE (peptide)
chain: DEIAALEAKNAALKAENAALEAENAALEG
The molecule B7 registered an interaction score with Core_INNN-es_KEKK of 1.91.

B8: Core_NINI-es_EKEE (peptide)
chain: DENAALEAKIAALKAENAALEAEIAALEG
B8 gave an interaction score in the test with Core_NINI-es_KEKK of 2.15.

B9: Core_NNNI-es_EEEK (peptide)
chain: DENAALEAENAALEAENAALEAKIAALKG
As to B9, the interaction score with Core_NNNI-es_KKKE came to 2.16.

B10: Core_NINN-es_EKEE (peptide)
chain: DENAALEAKIAALKAENAALEAENAALEG
As for B10, the interaction score with Core_NINN-es_KEKK stood at 1.5.

B11: P3SH (peptide)
chain: DEIKELEEEIKELEWKNEELKRKNEELKR
For B11, the interaction score was 0.525 with P8SH; -0.109 in the test with P7SH; 0.764 with P3SH; 1.95 in the test with P4SH; 0.554 with P5SH; 0.737 with P6SH.

(Values after PMC10397247.)
